The labels stand for the following.
B1: pOA-15 (antibody, V domains shown)
VH: EEKLVESGGGLVQPGGSLRLSCVGSGFDLSDYGFSWVRQAPGKGLETMAFIDSRTSSFTTYTVIGVKGRFTIDNDNALQLNSLTSEDTARYFCARGRGSNGPKGLIGAYGMDLWGPGVEVVVSS
VL: QIVIQEPAMSVSLGGTVTLTCAYRSGSVTIKDGPNWYQQTPGQPPRQLIYNTNSRPTGVPSRFSGAISGNKATLTIAGAQAEDEAEYFCILYKNLEEVRFGDGTHLSVV
B2: pOA-16 (antibody, V domains shown)
VH: EEKLVESGGGLVQPGGSLTLSCVGSGFDFSLYNMIWVRQAPGKGLEWLAGIWESGVQDSYPESMKGRFTISRDNSQNTAYLKIHILGMEDTARYYCASGARCGEDRCIDLWGPGVEVVVSS
VL: QTVIQEPAMKVSPGGTVTLSCAFSSGSVTTSNYPSWFQHTPGQPPRLLMYRTSYRPTGVNSRFSGAISGNKATLTITGAQTTDEADYYCALFLNTITIPFGGGTHLTVL
B3: pOA-14 (antibody, V domains shown)
VH: EERLVESGGGLVQPGGSLKLSCVASGFDFQKYMINWVRQAPGKGLEWLALIWNDGKQRYYVESAHMRFTISRNNSQNTAYLEMNRLRVEETARYYCARGWGVEKMDLWGPGVEVAVSS
VL: QTVIQEPAMTVSLGGTVTLTCGFSSGSVTGTKYPNWYQQTPGQRPRLLIYSTKIRPTGVPSRFSGAISGNKATLTIMGAGAEDEADYYCSLNQNYKIIFGAGTHLIVL
B4: pOA-4 (antibody, V domains shown)
VH: EEKLVESGGGLVRPGGSLRLSCVGSGFPWNTYSVRWVRQAPMKGLEFVAYIFKNDNDRDYASSVKGRFTISRDNSQNTAYLQMNNLRTEDTAHYYCLLANKYWGPGVEVVVSS
VL: AVVLTQTPVSLTVSVGEPASISCSSSQSLVEDDGSSVLNWYLQKPGQSPQRLIYSAVGRDTGVPDRFSGSGSGTEFTLKISRVEAEDAGVYYCQQSRFSTSFGAGSKLELK
B5: pOA-5 (antibody, V domains shown)
VH: EEKLVESGGGLVQPGGSLRLSCVGSGFIFSSGEITWVRQAPGKGLEWLAYTTIRGTSKYYADSVGGRFTISRDDSQNTATLQMNSLRIEDTARYYCARGKEDAVQGYYGKALDLWGPGIGVVVSS
VL: SSQLTQPPGVSVSLGGTATITCQGGSFGRYYSHWYKQRPGQAPILVIYDDAKRPAGIPDRFSGSTSGNSVTLTITGAQAEDEADYYCQSVDRSGNAKFGGGTHLTVL
B6: pOA-11 (antibody, V domains shown)
VH: EEKVVESGGGLVRPGESLRLSCVAEGVEFGRRSVRWVRQRPGKGLEFVIYMFNDAQSVDIADSVKGRFTISRDNSQNTAYLQMNRLTVEDTGRYFCLTANKWFGPGVEVVVSS
VL: AIVLTQTPLSLSVTPGESVSISCKSTKSVLDTDGTIVLNWYLQRPGQAPQRVIWSTFYRETGVPDRFTGSGSDTDFTLHISRVEAEDVGVYYCQQSRESTSFGAGTKLDLK
B7: pOA-18 (antibody, V domains shown)
V domain 1: EEKLVESGGGLVQPGGSLRLSCVGSGFTFTNYEIVWVRQAPGRGPEWISYISNGGARKAYATSVRGRFSISRDNSRNTVDLQLNNLKIEDTGRYYCVGGGHCLGDNCYSLSLWGPGVELVVSS
V domain 2: QTVIQEPAMSVSPGGTVTLTCAFYSGSVTSENYPSWFQQTSGQPPREVIYMTDNRPTGVPDRFSGSISGNKATLTITGAQAEDEADYFCMLYKGTTNVPFGGGTHLTVL
B8: pOA-12 (antibody, V domains shown)
VH: EEKLVESGGGLVQPGGSLTLSCVGSGFYFSNYEIVWVRQVRGGGLEWISYVSNGGARTSYALSVKGRFTIFRDNSRNTVDLHLNNLRIEDTARYYCVGGGQCLGDNCYSMALWGPGVEVFVSS
VL: QTVIQEPAMSVSLGGTVTLTCAFTSGSVTKTNYPSWFQQTPGQPPRQLIYHTDNQATGVPSRFSGAISGNKATFTITGAQAEDEADYFCCLYRGTTNVPFGGGTRLTVL
B9: pOA-1 (antibody, V domains shown)
VH: EENVVESGGGLVRPGGSLRLSCIFSGFTFSTYSVRWVRQAPGKGLEFLTYIFKNVGDIDTADSVKGRFTISRDNSQNTAYLQMNSLRPEDTARYFCLVANKYWGPGVEVLVSS
VL: AIVLTQSPLSLSVSPGDSASISCRSSQSLVEDDGSSVLNWYLQRPGQSPQRLIYSAVGRDAGVPDRFSGSGSGTDFTLTISGVEAEDLGVYYCQQSKVSTTFGAGSKLDLK

This is an account of results in PMC11508087 (PLOS Pathogens, 2024).

The first assay deals with FMDV O/18074 146S antigen (Foot-and-mouth disease virus serotype …, strain).
Experiment: not given
Conditions: not given
For B1, the binding result is “binds”. In the case of B2, the binding result is “binds”. Consider B3, for which the binding result is on record as “binds”. For B4, the binding result is reported as “binds”. On the same count and under the same terms, the result for B5 reads “binds”; that for B6, “binds”.

On to B7, for which the binding result is reported as “binds”.

In the case of B8, the binding result was “binds”.

Another assay deals with T1, FMDV O/Tibet/99 146S antigen (Foot-and-mouth disease virus serotype …, strain).
T1 construct: copies: + + +
Description: BLI; RED96; […] (10 μg/ml) […]; 0.01 M PBS, 0.1% BSA, 0.02% Tween 20; global fit. The note with it: both partners purified. (In general: BLI is a label-free optical method that tracks binding on a fibre tip over time.)
With B9, the Kd – broadly, the concentration at which binding is half-saturated – is 0.04 nM.
